# Test results taken from the nanobody polyreactivity screen of Harvey et al. (2022).
# Experiment: yeast display, Sf9 membrane polyspecificity reagent, FACS + sequencing; frameworks hold sequencing errors
# Summary of the method: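 Synthetic nanobody libraries on Saccharomyces cerevisiae BJ5465 were galactose-induced for 36–48 hours, stained 1 hour at 4 °C with 10% biotinylated, detergent-solubilized Sf9 membrane reagent and enriched on streptavidin microbeads. FACS then separated cells into low and high (top ~1%) gates by anti-HA (expression) and streptavidin (reagent binding) fluorescence. Genes were colony-PCR amplified, MiSeq 2 × 250 sequenced and CDR-length filtered. A clone's polyreactivity label is that of its gate of origin.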
row,Sequence,polyreactivity (PSR sort gate)
1,QVQLVESGAGLVQAGGSLRLSCAAYGLIFTYNAMGWYRQAPWKERKLVARITSGGNTNYADSVKGRFTISRDYAKNTVYLQMNSLKPEDTAVYYCATCLYWFTNRYGYWGQGTQVTVSS,low polyreactivity
2,QVQLVESGAGLVQAGGSLRLSCAPSGITFVGNAMGWSRPAPGKERELVAGIRGNGGSTYYADSVKGRFTISRDNAKNTVYFQMNSLKPEDTAVYYSAAAAYYADFDYWGLGTQVTVSS,low polyreactivity
3,QVQLVESGAGLVQAGGSLRLSCATYGITISYYAMVWYGQGPGKVSELVAAISTSGGSTYYADSVKGRFTFSRDNAKNTVYLQMNSLKPEDTAVFYCAAVYTTGGYTGLEYWGQGTQVTVSS,high polyreactivity
4,QVQLVESGAGLVQAGGSLRLTCAASGFIFRDYAMGGYRQAPGKDRELVAAISSGDSTNYADSVKGRFTISRDNAKNTVYLLMNSLKPEDTAVYYCAADQVQYTGYTEYDWGQGTQVTVSS,low polyreactivity
5,QVQLVESGAGLVQAGGSLRLTCAASGFIFRRNAMGWYRQAPGKERELVAAITTGGRTNYADSVKGRFTISRDNAKNTVYLQMNSLKPEDTPVYYCYAPVLDVIDVFYYARILFGYWGQGTQVTVSS,low polyreactivity
6,QVQLVESGAGLVQAGGSLRLTCAASGSTFYRYAMGWYREAPGKERELVAAINTGGSTNYADSVKGRFTISRDNAKNTVYLQMYSMKPEDTAVYYCAARFQYYRKYDYWGQGTQVTVSS,low polyreactivity
7,QVQLVESGAGLVQAGGSLRSSCAASGSTFSGNAMGLYRQAPGKERELVAAISGRGGSTYYADSVKGRFTISRDNAKNSVYLQMNSLKPEDTAVYYCAKRRNTRGAYGYWGQGTQVTVSS,high polyreactivity
8,QVQLVESGAGLVQAGGSLRVSCAASGSIFGKNAMGWYRQAPGKERELVAAITSSGGSTYYADSVKGRFTISRDNAKNTVYLQMNSLKPEDTAVYYCAARPWIWARAGYYWGQGTQVTVSS,high polyreactivity
9,QVQLVESGAGLVQAGGSRRLSCAASGSIFYRYTMGWYRQAPGKERELVAGITFGAGTYYADSVKGRFTISRDNAKNTVYLQMNSLKPEDTAVYYCNAIHLPRNRDYWGQGTQVTVSS,low polyreactivity
10,QVQLVESGAGLVQAGVSLRLSCAASGRIFYYYTMGWYRHAPGKERELVASITIGDSTYYADSVKGRFTISRDNAKNTVYLQMNSLKPEDTAVYYCAAVKTVDVGYDYWGQGTQVTVSS,low polyreactivity
11,QVQLVESGAGLVQARGSLRLSCAASGRIFYQYAMGWYRQAPGKERELVAAISWNGGRTYYADSVKGRFTISRDNAKNTVYLQMNSLKPEDTAVYYCAASFTGYSRDRYGYWGQGTQVTVSS,high polyreactivity
12,QVQLVESGAGLVQDGGSLRLICAASGRTFTPYAMGRYRQAPGKEMEFVAAISIVGRTKYADSVKGRFTISRDNAKNTVYLQMNSLKPEDTEVYYCNAQDSRDRKFYWGYTRGHWGQGTQVTVSS,low polyreactivity
13,QVQLVESGAPLVQAGGSLRLSCAASGSTFERYVMGWYRQRLGNKGSWLPVLNHNGGSTYYADSVKGRFTISRDNAKNTVYLQMNSLKPEDTAVYYCAASFRTVLDYGYWGQGTQVTVSS,low polyreactivity
14,QVQLVESGARLVQAGGSLRLSCAASGSILGGNAMGWYRQPPGKERELVAAITFSGGGTYYADSVKGRFTISRDNAKNTVYLQMNSLKPEDTAVYYCAADIAGYTYEFDYWGQGTQLTVSS,low polyreactivity
15,QVQLVESGEGLVQAGGSLRLSCAASGSIFSLNAMGWYRQAPGKERELVAAISGRGGSTYYADSVKGRFTISRDNAKNTVYLQMNSLKPEDTAVYYCAARFSRTFLGYYYWGQGTQVTVSS,high polyreactivity
16,QVQLVESGGAIVQAGRSLRLSCAASGNIFESYGMGWYRQAPGKERELVATINTSSGSTYYADSVKGRFTISRDNAKYTVYLQMNRLKPEDTAVYYCAVRPKTSWYSWYYLGQGTQVTVSS,low polyreactivity
17,QVQLVESGGAKVQAGGSLRLSCAASGRTFDYYVMGWNRQAPVKEREFVAAITWSGDSTYYADSVKGRFTISRENAKNTVYLQMNSLKPEDTAVYYCNADYYPTTFYAFVYMYDYWGQGTQVTVSS,low polyreactivity
18,QVQLVESGGALDQAGGSLRLICAASGRIFWYNAMGWYRQAPGKERELVAGIRSGGSTNYADSVKGRFTISRDNAKNPVYLQMNSLKPEDTAVYYCAARRWRTQDRSHFYYWGQGTQVTVSS,low polyreactivity
19,QVQLVESGGALDQAGGSLRLSCAASGFFRYAMGSYRQAPGKERELVAAITSGGRTNYADSVKGRFTISRDNAKNTVYLQMNSLKPEDTAVYNCAADQGSRSEELDYWGQGTQVTVSS,low polyreactivity
20,QVQLVESGGALDQAGGSLRLSCAASGSTFVVNAMGWYIQAPGKERELVAGITTSGGSTYYADSVKGRFTISRDNAKTTVYLQMNSLKPEDTAVYYCAARRWPYVYRFRAYSGFDYWGQGTHVTVSS,low polyreactivity
21,QVQLVESGGALDQARGSLSLSCAASGFLFGQNAMVWSRQAPGKLREFVATNNRSGGSTYYADSVKGRFTISRDNAKNTVYVQMNSLKPEDTAVYYCAKGPRMSSSLRYSAYWIMNYWGQGTQVTVSS,high polyreactivity

row,Sequence,polyreactivity (PSR sort gate)
1,QVQLVESGGALGQAGGSLRLSCAASGFTFRIYDMGWYRHAPGKETELVAAITNGGSTDYADSVKGRFTISRDNAKNTVYLQMNSLKPEDTAVYYCAADVTYQVYDLVSVWYDYWGQGTQVTVSS,low polyreactivity
2,QVQLVESGGALVHAGGSLRLSCAASGSIFYQYDMGWYRQAPLKERELVAAISRSGTRTYYEDSVKGRFTISRDNAKNTVYLKMNSLKPEDTAVYYCARRYRSGYGYWGQGTQVTVSS,high polyreactivity
3,QVQLVESGGALVQAGGRLRLSCAASGTFERKVMGWYIHAPGKERELVAAISRSGSSTYYADSLKGRFTISRDNAKNTVYLQMNSLKPEDTAVYYCAARGTKQHFNYWGQGTQVTVSS,high polyreactivity
4,QVQLVESGGALVQAGGSHRLSCAASGRTFHFNAMGWYRPATGKERELVAAITNSGGRTSYADSVKGRFTISRDNAKNTVYLQMNSMKPEDTAVYYCNVEVTYSSGKYDYWGPGTQVTVSS,low polyreactivity
5,QVQLVESGGALVQAGGSLRISCAASGRTFQVNTMGWYRQAPGKEMELVAAISSAGRTYYADSVKGRFTISRDNAKNTVYLQMNSLKPEDTAVYYCSAAWSYSYWKARYGYWGQGTQVTVSS,high polyreactivity
6,QVQLVESGGALVQAGGSLRLICAASGSIFGHNAMGWYRQAPGKERELVAAISRGTRTNYADSVKGRFTISRDNAKNTFYVQMNSLKQVDSAVYYCNLQPGRGPYVGRKYGYWGQGTQVTVSS,high polyreactivity
7,QVQLVESGGALVQAGGSLRLICAASGSTFDSNVKGWSRTAPGKERELVAVINGSGSNTYYADSVKGRFTISRDNAKNTVYLQMNSLKPEDTAVYYCNKRYWGGRYGYDYWGQGTQVTVSS,high polyreactivity
8,QVQLVESGGALVQAGGSLRLSCAASARIFGRNAMGWYTQAPGKERELVAAISSGGSTYYADSVKGRFTISRDNAKKTVYLQMNSLKPEDTAVYYCAVRGYYFNGGRAFESWGQGTQVTVSS,high polyreactivity
9,QVQLVESGGALVQAGGSLRLSCAASGFIFDAYAMGWYRQAPGKERELVPAIDYSGGNTYYADSVKGRFTISRDYAKNTVYLQMNSLKTEDTAVYYCNADYAGSFWSREYDYWGQGTQVTVSS,low polyreactivity
10,QVQLVESGGALVQAGGSLRLSCAASGFTFAWYAMGWYRQAPGKERELVAAISRSGGSTYYADSVKGRFTISRDNAKNTVYLQMNSLKPEDTAVYYCATRVYSYRKAGWYDYWGQGTQVTVSS,high polyreactivity
11,QVQLVESGGALVQAGGSLRLSCAASGFTFRTYAMGWYRQAPRKERELVADISGSGGSTYYADSVKGRFTISRDNPKNTVYLQMNSLKPEDTAVSYCAADYASWSNWGYEYWGQGTQVTVSS,high polyreactivity
12,QVQLVESGGALVQAGGSLRLSCAASGGILQYNAMGWYRQAPGKEREFVAAITTSGGSTYYADSVKGRFTISRDNAKNTVYLQMNSLKPEDTAVYYCAADSWWGIYYSGYDYWGQGSQVTVSS,low polyreactivity
13,QVQLVESGGALVQAGGSLRLSCAASGIIFYSYAMGWYRQAPGKERELVAAISNNGGSTYADSVKGRFTISRDNAKNSVYLQMKSVKPEDTAVYYCAADPTGGVGFDGYYWGQGTQVTVSS,low polyreactivity
14,QVQLVESGGALVQAGGSLRLSCAASGLTFEVYAMGWYRQAPGKESELVAAISSGGGSTYYADSVKGRFTISRDNAKNTVYLQMNSLKPEDTEVYYCNAVAKLYYWRYDYWGKGTQVTVSS,low polyreactivity
15,QVQLVESGGALVQAGGSLRLSCAASGRIFRKNAMGWYRQAPGKERELGAAISGGGGSTYYAVSVKGRFTISRDNAKNTVYLQMNSLQPEDTAVYYCNAPILPGYWGQGTQVTVSS,high polyreactivity
16,QVQLVESGGALVQAGGSLRLSCAASGRIFWHNAMGWYRQAPGKERELVAAISSRGGSTSYADSVKGLFTISRDNAKNTVYLQMNSLKPEETAVYYCNARNQAYYRVWGYRGDYWGQGTQVTVSS,low polyreactivity
17,QVQLVESGGALVQAGGSLRLSCAASGRTYWSYNIGWYRKAPGKERELVAAITSSGGTTNYADSVKGRFTISRDNAKNTVYLQMNRLKREDTAVYYFAAYSWYFGSRYDYWGQGTQVTVSS,low polyreactivity
18,QVQLVESGGALVQAGGSLRLSCAASGSIFRYYAMGWYRQAPVKERELVAAIDFSGGRTYYADSVKGRFTISRDNAKNTVYLQMNRLKPEDTAVYDCARKYTTAYGSTFYYWGQGTQVSVSS,high polyreactivity
19,QVQLVESGGALVQAGGSLRLSCAASGSIFSRNAMGWYRTAPGKERELVAGISTGGSTNYADSVKGRFTISRDNAKNTVYLQMTSLKPEDTAVYYCAAPLAYEGDYWGQGTQVTVSS,low polyreactivity
20,QVQLVESGGALVQAGGSLRLSCAASGSIFVPYTMGWYRQAPGKERELVSSISYSGGTTYYADSVKGRFTISRDYAKNTVYLQMNSLKPEDTAVYYCAADWDESYSYRRYSHYDYWGQGTQVTVSS,low polyreactivity
